Several values for one entry are separate records, joined by “and”; a condition that tells them apart may be missing. Equal entries are not always repeated.
Tested on: HEK293T
Test: median enrichment of reporter reads in eGFP-reduced (low/intermediate) vs eGFP-high sorted cells (eGFP-extension fusion abundance) (ratio); higher = stronger loss of eGFP-fusion protein abundance (more destabilising extension)
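Further: lentiviral eGFP-IRES-mCherry reporter pool sorted by FACS 96 h post-transduction, gated on mCherry-high cells, Illumina read counts normalized per million, median across four biological replicates.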

Substance	median enrichment
CQVLCGAEIPCRHFACSNQQDPAPRSPGAIIMQPAVLLWRGQVTFQKTPSWMGLPFCSSPHSRISNGSLL [BCL2L11]	11
CRALMSPTRKLTPNKRLPFPLGFFVLFLSKRDR [IPO5]	4.2
CRDLAERWRSHQGPRDNYQEQKPLPVPH [IGSF22]	3.87
CRFLLKLTLFHLSF [VHL]	24.3 and 30.2
CRKVSKNVNIL [C2orf49]	0.739
CRL [ACADSB]	4.42
CRRPPGGGSGGRCVDPTASSSY [FRAT2]	0.875
CRRQKISFVQKSKMKRM [INSIG2]	3.96
CRSWRTLGPRPAPIAGGR [MKNK2]	8.08
CRVAFFLL [GTF2A1]	11
CRVSLWPLSGIPGGRGGEGGTHIVNS [BDH1]	6.12
CSDGGWSLSESSALPSPGDEGNSLCFAEKILWINTEAPATPEGWRLLSLPILQSGSKPSKTAPEHCFSWVQS [C3orf52]	13.3
CSDVPFIYNNVKCNCLVP [TCP1]	4.71
CSFPVPSHYSPKLGKGGGTYEKNSSGFITDWE [CNOT9]	3.28
CSFQRNMVSGQKDC [ZNF831]	0.731
CSLG [MAGEC2]	0.658
CSLHLGGGSLGKSTQTCTTVQQQGSLLPAVPPPPVYTT [SEZ6]	19.3
CSPMPAHL [CDNF]	7.02
CSQVGFA [TUSC3]	0.572
CSSVYELPFHSAFRNYILAFIFNLPTYFK [ATM]	8.5

Substance	median enrichment
CSWSRG [MLIP]	6.67
CTKAWA [IFNGR2]	0.778
CTLGAVSSKSL [ZFC3H1]	0.779
CTRAGGGAERGAPPPLRSLALSRPSCSLSNF [POU3F2]	4.86
CTTQDTHSTCMNNTGHTQARA [CCDC40]	1.14
CVAGVEVLIEYDRRMTITLSAQCG [OR10H2]	6.41
CVARALGVLLEAPRASRIASQLPGQPTLLQPLTRTPVIRTGAPVPWSPPWAHVLTQAQQ [OVOL1]	8.09
CVETCAPRRGAAVREGLCTAAPATDPVRKYLLGASPGLGLGMRWSPGLSFLSTQWVILASTCRAPCQALPTHLPV [OLFML2A]	7.4
CVF [LYRM7]	0.777
CVSSFTDSPQPFSCLKT [DPH6]	3.83
CVSYSSSMLGIPTAATMILVPERAMLLFQLV [MTMR8]	23.9
CVTVLDFSKTSFNTE [GABRB3]	4.69
CVWGLAPCSPGPHCSHTLRLGPPSLLWC [TOM1]	9.33
CYSFQLLPLCLPG [TRIM55]	7.06
CYSK [FAM162B]	0.641
DDD [Asp03]	0.645
DDDD [Asp04]	0.37
DDDDD [Asp05]	0.224
DDDDDD [Asp06]	0.38
DDDDDDD [Asp07]	0.338

Substance	median enrichment
DDDDDDDD [Asp08]	0.299
DDDDDDDDD [Asp09]	0.213
DDDDDDDDDD [Asp10]	0.433
DISSYLTMLSLLGAVLVGPGPCIMPRSQLQGPSWGPGWALGSGPCCSSPSHQPVPVVRKPGLLSSFLLGECQTQGPSTGLGWE [BAP1]	5.92
DLASKKSCSVPCVLSFKGIFRINSDLEDSSVLQRLAFIFIVIMEMLSFILSYIRKKGVMQLISISLGNALVLFSSFLVPVTCL [CREB5]	14
DNPHPHCFWGSLSHLSHPVSCLCLSWCLSGLLSVSFCLSVSLPTPAPSFQCSGWLSLPFSPSLSALGSVSTAGPKVKVLPLPE [CCDC97]	5.65
DPTPLWGSGTLHCTGSLHTGRGTCAPTSETCRSPQLTCPTGAQHCTQLVGRTRACLRELPAGVMQGGGEVQGRGAGLSCHQHF [MAP3K11]	2.41
DQPHSAQEAASGVGAQRGTAASSTAGCGAAGPGPSAWAAEYIFYLSETSIFLGSNPTCHHVDISSYLTMLSLLGAVLVGPGPC [BAP1]	4.59
EAKSRCTQHVLGMQPQEVPDLKQPDSYLA [GREM1]	0.305
EATKRPGFSSCCHQLALWPRARCLPFMFPHLQSELVVPDDLRSHDLLTCPMILYFVGRSIKQLLLLLCANHSCNFCSAYLPLF [ADAMTSL1]	5
EAWLPPESCSLKLGF [POU2AF1]	0.528
ECDKVQPSDLIIHKIIYT [ZNF679]	8.95
ECLSIKSGFAP [NPL]	0.687
ECPARAAAPATLPRVAFRAAPRVGNLGARGGRLGVPFFFSFSFAFRLFYFFLK	15.7
ECPLFLFLLSPFSSLRSIGPLLSIFITRCFPLKHAHATVTKTNNYHFPNFIQNHFSVFLFPTPPTTFNDEIP [PHYHIPL]	15.5
EDPGTQRLCPPRPQSVPITLTVLHTVHAPLLAFFREKENFTTGSH [SERTAD2]	6.58
EDTPSPDSTGNRSSPDSPPRRASPRPCTGSEASVTLPLCSPVP [KDM2A]	0.106
EEE [Glu03]	9.28
EEEE [Glu04]	8.36

From the supplement of paper PMC11502859
